Data from paper doi:10.1101/2025.10.14.682297 (bioRxiv, 2025).

Biological target: the molecule itself
Experiment: cryo-EM structure

B1: human ZNFX1 (NFX1-type zinc finger-containing 1), full-length, 2xStrep-tagged, wild type (enzyme, UniProt Q9P2E3 1-1918, looked up)
chain: MEERRPHLDARPRNSHTNHRGPVDGELPPRARNQANNPPANALRGGASHPGRHPRANNHPAAYWQREERFRAMGRNPHQGRRNQEGHASDEARDQRHDQENDTRWRNGNQDCRNRRPPWSNDNFQQWRTPHQKPTEQPQQAKKLGYKFLESLLQKDPSEVVITLATSLGLKELLSHSSMKSNFLELICQVLRKACSSKMDRQSVLHVLGILKNSKFLKVCLPAYVVGMITEPIPDIRNQYPEHISNIISLLQDLVSVFPASSVQETSMLVSLLPTSLNALRASGVDIEEETEKNLEKVQTIIEHLQEKRREGTLRVDTYTLVQPEAEDHVESYRTMPIYPTYNEVHLDERPFLRPNIISGKYDSTAIYLDTHFRLLREDFVRPLREGILELLQSFEDQGLRKRKFDDIRIYFDTRIITPMCSSSGIVYKVQFDTKPLKFVRWQNSKRLLYGSLVCMSKDNFETFLFATVSNREQEDLCRGIVQLCFNEQSQQLLAEVQPSDSFLMVETTAYFEAYRHVLEGLQEVQEEDVPFQRNIVECNSHVKEPRYLLMGGRYDFTPLIENPSATGEFLRNVEGLRHPRINVLDPGQWPSKEALKLDDSQMEALQFALTRELAIIQGPPGTGKTYVGLKIVQALLTNESVWQISLQKFPILVVCYTNHALDQFLEGIYNCQKTSIVRVGGRSNSEILKQFTLRELRNKREFRRNLPMHLRRAYMSIMTQMKESEQELHEGAKTLECTMRGVLREQYLQKYISPQHWESLMNGPVQDSEWICFQHWKHSMMLEWLGLGVGSFTQSVSPAGPENTAQAEGDEEEEGEEESSLIEIAEEADLIQADRVIEEEEVVRPQRRKKEESGADQELAKMLLAMRLDHCGTGTAAGQEQATGEWQTQRNQKKKMKKRVKDELRKLNTMTAAEANEIEDVWQLDLSSRWQLYRLWLQLYQADTRRKILSYERQYRTSAERMAELRLQEDLHILKDAQVVGMTTTGAAKYRQILQKVEPRIVIVEEAAEVLEAHTIATLSKACQHLILIGDHQQLRPSANVYDLAKNFNLEVSLFERLVKVNIPFVRLNYQHRMCPEIARLLTPHIYQDLENHPSVLKYEKIKGVSSNLFFVEHNFPEQEIQEGKSHQNQHEAHFVVELCKYFLCQEYLPSQITILTTYTGQLFCLRKLMPAKTFAGVRVHVVDKYQGEENDIILLSLVRSNQEGKVGFLQISNRICVALSRAKKGMYCIGNMQMLAKVPLWSKIIHTLRENNQIGPMLRLCCQNHPETHTLVSKASDFQKVPEGGCSLPCEFRLGCGHVCTRACHPYDSSHKEFQCMKPCQKVICQEGHRCPLVCFQECQPCQVKVPKTIPRCGHEQMVPCSVPESDFCCQEPCSKSLRCGHRCSHPCGEDCVQLCSEMVTIKLKCGHSQPVKCGHVEGLLYGGLLVKCTTKCGTILDCGHPCPGSCHSCFEGRFHERCQQPCKRLLICSHKCQEPCIGECPPCQRTCQNRCVHSQCKKKCGELCSPCVEPCVWRCQHYQCTKLCSEPCNRPPCYVPCTKLLVCGHPCIGLCGEPCPKKCRICHMDEVTQIFFGFEDEPDARFVQLEDCSHIFEVQALDRYMNEQKDDEVAIRLKVCPICQVPIRKNLRYGTSIKQRLEEIEIIKEKIQGSAGEIATSQERLKALLERKSLLHQLLPEDFLMLKEKLAQKNLSVKDLGLVENYISFYDHLASLWDSLKKMHVLEEKRVRTRLEQVHEWLAKKRLSFTSQELSDLRSEIQRLTYLVNLLTRYKIAEKKVKDSIAVEVYSVQNILEKTCKFTQEDEQLVQEKMEALKATLPCSGLGISEEERVQIVSAIGYPRGHWFKCRNGHIYVIGDCGGAMERGTCPDCKEVIGGTNHTLERSNQLASEMDGAQHAAWSDTANNLMNFEEIQGMM
  stoichiometry N: 2
